Results: patent publication US20200171068A1, “COMPOSITIONS COMPRISING APTAMERS AND NUCLEIC ACID PAYLOADS AND METHODS OF USING THE SAME” (Children's National Medical Center, priority 2017, published 2020)
Entries after “also recorded” stand apart in the source; their conditions may differ. [C3] = C3 (propyl) spacer linking the 3' end of the DNA aptamer to the passenger RNA

Legend:
hematopoiesis = test: Carboplatin-induced myelosuppression in mice; assay type: in vivo, mouse
Experimental: (§1) For xenograft models, the NSG mice and BALB/c mice were subcutaneously injected with 2×10^6 viable MDA-MB-231 cells and TUBO cells in their right hind limbs, respectively. After the tumor grew to 1 cm in diameter, mice were randomly divided into the groups for each treatment. For no treatment control, 100 μl saline with 1% mouse serum was intravenously injected through tail vein. For treatment groups, 670 pmol/20 g chimeras and/or 5(0 mg/kg 5-fluorouracil (5-FU), or 120 mg/kg carboplatin were also intravenously injected. Tumor sizes were measured in two dimensions every 3 days. Tumor volume (V) was calculated using the following formula: V=(½) S^2×L (S. the shortest dimension; L, the longest dimension). Animals were euthanized when the tumor size was over 2 cm diameters, tumor ulcerated, or became necrotic. For chimera treatment in normal mice, C57BL/6 mice were treated with miR-26a chimera (670 pmol/20 g) everyday for 3 days by intravenous injection. At day 2, 150 mg/kg 5-FU and/or 120 mg/kg carboplatin was injected together with the chimera. Peripheral bloods were collected at day 5 and day 10 after the 5-FU treatment. Complete blood counts were measured by Hemavet 950FS (Drew Scientific, Miami Lakes, Fla., USA).

[1] = system: MDA-MB-231 xenograft tumors; test: MDA-MB-231 xenograft in NSG mice; assay type: in vivo, mouse
Description: Xenograft model were generated 8-weeks old female immune-deficient NOD-scid IL2Rgamma^null (NSG™, Jackson Laboratories, Bar Harbar, Me., USA) using human breast cancer cell line. Syngeneic TUBO tumors were established in 8-weeks old female BALB/c mice (from Charles River Animal Facility, Frederick, Md., USA). These tumor-bearing mice were randomly assigned to each treatment group. Eight-week old male C57BL/6 mice and C57BL/6 ly5.2 mice (from Charles River Animal Facility, Frederick, Md., USA) were used for bone marrow transplantation assay. The mouse groups assigned for each treatment were not blinded. No statistical methods were used to pre-determined sample size for the analysis of mouse experiments. All the mice were maintained in the Research Animal Facility at Children's National Institute, Children's National Medical Center. The committee on the Use and Care of Animal at Children's National Institute approved all procedures involving experimental animals.
as §1

EZH2 protein = test: EZH2 immunoblot in chimera-treated MDA-MB-231 cells; assay type: cell-based, human; conditions: 167 nM chimeras for 2 days
Experimental: The cell lysate from MDA-MB-231 cells treated with 167 nM chimeras for 2 days were fractionated by SDS-PAGE and then transferred to PVDF membrane (EMD Millipore, Billerica, Mass., USA). Following blocking with 5% FBS in tris-buffered saline, the membrane was incubated with primary antibody against EZH2 (D2C2) and Histone H3 (Cat #9715) (Cell Signaling Technologies, Danvers, Mass., USA) overnight at 4° C. and then incubated with horseradish peroxidase-conjugated anti-mouse and rabbit IgGs (Thermo Fisher Scientific) for 1 hr. respectively. The antigen-antibody immunoreactivity was detected in ChemiDoc Touch Imaging System (Bio-Rad Hercules, Calif., USA) using SuperSignal West Pico Chemiluminescent Substrate (Thermo Fisher Scientific).

MDA-MB-231 cells [2] = test: miR-26a delivery into MDA-MB-231 cells, qPCR; assay type: cell-based, human; conditions: two days after incubation, compared to control chimera
Description: Total RNAs from cell lines and mouse tissues were extracted by RNeasy Plus Mini kit (Qiagen, Valencia, Calif., USA). miR-26a levels were quantified by Taqman microRNA assay (assay ID; 000405) that covered both has-miR-26a-5p and mmu-miR-26a-5p (Thermo Fisher Scientific) according to manufacturer's protocol. U6 snRNA (Taqman microRNA assay, assay ID; 001973) was used as endogenous control. For qPCR of other genes, cDNAs were synthesized from the purified total RNA with qScript cDNA supermix (Quanta Bio, Gaithersburg, Md., USA). Real-time PCR was performed with Power SYBR Green PCR master mix (Thermo Fisher Scientific) on 7500 Real Time PCR system (Thermo Fisher Scientific). Sequence primers for mouse Bak were […] (forward) (SEQ ID NO: 11) and […] (reverse) (SEQ ID NO:12). For mouse Ezh2, […] (forward) (SEQ ID NO:13) and […] (reverse) (SEQ ID NO:14). For mouse Actb, […] (forward) (SEQ ID NO:15) and […] (reverse) (SEQ ID NO:16) were used as endogenous control.

MDA-MB-231 cells [3] = test: Growth and apoptosis of MDA-MB-231 cells cultured with chimera; assay type: cell-based, human; conditions: 3 days of culture
Description: FIG. 1A-FIG. 1H show identification and validation of KIT-targeting miR-26a chimera that inhibits human breast cancer growth in vitro and in vivo. FIG. 1A is a graph showing the overall survival of basal-like breast cancer patients with higher or lower expression of miR-26a-2 based on the expression scores comparing to the mean value in TCGA cohort. FIG. 1B is a graph showing the binding of anti-KIT antibody and KIT DNA aptamer to MDA-MB-231 cell line. Other cell targeting aptamer is specific for Ramos cells. FIG. 1C depicts the secondary structure of KIT aptamer-miR-26a chimera. KIT DNA aptamer was linked with C3 linker to RNA passenger sequence that was complimentary binds to miR-26a mimic sequence. Another RNA passenger sequence binding to the 3′ of miR-26 mimic was conjugated with TEG-cholesterol. FIG. 1D is a graph showing specific miR-26a delivery by the miR-26a chimera. […] After 3 days of culture with miR-26a chimera or control chimera, MDA-MB-231 cell numbers (left) were counted using hemocytometer and Annexin V positive cells (%) (right) was determined by flow cytometry. […]
For aptamer binding assay, streptavidin-APC (Cat #554067) […] Bioscience, San Jose, Calif., USA) was used for detecting the biotin-conjugated aptamers by flow cytometry. […] Flow cytometry analysis was performed on FACS Canto II (BD Bioscience) and the data were analyzed with FlowJo (FLOWJO, Ashland, Oreg., USA). […]

| Molecule | red blood cells after carboplatin (hematopoiesis; day 10) | hematopoiesis: WBC and platelet counts after carboplatin (hematopoiesis; single high dose of carboplatin, day 5, compared with vehicle) | tumor growth (tumor volume) ([1]; 5 or 10 daily intravenous injections, 670 pmol/20 g) | survival ([1]; 5 or 10 daily intravenous injections, 670 pmol/20 g, log-rank test vs control chimera) | miR-26a in KIT+ tumor cells ([1]; NSG mice, MDA-MB-231 tumor, 3 days after intravenous injection 670 pmol/20 g, qPCR) | miR-26a in KIT tumor cells (KIT-negative population) ([1]; NSG mice, MDA-MB-231 tumor, 3 days after single injection, qPCR) | EZH2 protein expression (EZH2 protein) | miR-26a expression in the MDA-MB-231 cells (MDA-MB-231 cells [2]) | Annexin V positive cells (apoptosis) of MDA-MB-231 cells (MDA-MB-231 cells [3]; flow cytometry) | MDA-MB-231 cell numbers (growth) (MDA-MB-231 cells [3]; hemocytometer) |
| --- | --- | --- | --- | --- | --- | --- | --- | --- | --- | --- |
| N.N.O=C([O-])C1(C(=O)[O-])CCC1.[Pt+2] [carboplatin, reference compound] | reduction of red blood cells was also observed | significant defects in hematopoiesis; also recorded: significantly reduced WBC and platelet counts |  |  |  |  |  |  |  |  |
| KIT-targeting miR-26a chimera: anti-human KIT DNA aptamer-C3-passenger RNA, passenger RNA-TEG-cholesterol and miR-26a-5p guide strand annealed (SEQ ID NO:4/5, 8, 9) (nucleic acid, chain 1: DNA, 3' [C3], backbone not given here; chain 2: chemistry not given here; chain 3: chemistry not given here; guide: chemistry not given here; DNA aptamer joined by C3 spacer to passenger RNA, annealed three-part chimera) chain 1: GAGGCATACCAGCTTATTCAAGGGGCCGGGGCAAGGGGGGGGTACCGTGGTAGGACATAGTAAGTGCAATCTGCGAA chain 2: CCUAUUCUGG chain 3: GUUACUUGCACG guide: UUCAAGUAAUCCAGGAUAGGCU |  |  | significantly suppressed the tumor growth | extended their survival | Significant increase; also recorded: significant elevation | No increase | significant suppression; also recorded: significantly suppressed | significant increase; also recorded: successfully delivered miR-26a | induced apoptosis; also recorded: induction of apoptosis | suppressed the growth; also recorded: inhibited cell growth |
